To fix the notation:
B1: OR4K15 (parent)
chain: GUUAACGGUCAUAGGCCAUGGAAACUAGGAGCACCAUUUCGCUGCCAGUGAAGAAAUGAACAAAGAAAAUCUGGGCCAGGCAGGCAUCAAAAGAAAUAGUCUUGCGCUCAACCAGAAAGUCUGUAAUCAUUUUAAGGGUA

The variants in the data set derive from B1. Put plainly: self-cleavage, relative activity (ratio to wild type); higher = more cleavage; in vitro, sequencing; the parent is a self-cleaving ribozyme.
In the case of U87C U103C, the self-cleavage amounted to 0.95. The result for G93U reads 1.83. On to G93A, for which the self-cleavage amounted to 2.17. For A90U A129U, the self-cleavage worked out at 1.29.

For G93A A95G, the self-cleavage worked out at 2.26. To A94U U124C belongs 1.66. Regarding A90G A114G, the self-cleavage stood at 0.16. To A90U G99A belongs 0.52. Turning to A89U U108G, the self-cleavage came to 0.

For A89U U108C, the self-cleavage was 0.02.

On to A92G A114C, for which the self-cleavage came to 0.04.

Regarding A90U A140U, the self-cleavage was 1.2. The result for A92G A95G reads 1.46; that for U87C U131A, 0.39. To U87C U131C belongs 1.07. The result for A94G U108C reads 0.01.

On to A94G U108G, for which the self-cleavage was 0.07. To A92U A129U belongs 1; to A92U A129G, 1.13; to A94G U97A, 2.02.

A91C A114G: the self-cleavage worked out at 0.64.

For the variant C88A A94G, the self-cleavage was determined as 1.5.

As for A89C U103C, the self-cleavage is 0.8.

Regarding A94G A140G, the self-cleavage stood at 1.53. With A94G U102C, the self-cleavage was found to be 1.87. To A92G C105U belongs 0.08; to U87A U100C, 2.28. The result for A92G U103A reads 0.8. The result for A94G A111U reads 0.06.

As for A89G U139A, the self-cleavage is 1.67. To A89G U139C belongs 1.02; to A94G U122C, 1.21; to A89U A98U, 1.41. Turning to U87C C101A, the self-cleavage came to 0.14. The result for A89C A134G reads 1.16; that for A89G U132C, 1.4.

As for A91C U124C, the self-cleavage was determined as 1.67. The result for A94U U108C reads 0.02; that for A89C G136A, 1.27; that for A91U A118U, 1.23. The result for A90U A94G reads 1.48; that for A89U U100C, 2.55. With A89G A90G, the self-cleavage turned out to be 0.71. The result for A94G C113U reads 0.03. On to A89G A96U, for which the self-cleavage turned out to be 1.27. To A89G A96G belongs 0.83; to A91U U124A, 0.84; to A91G U108C, 0.02. The result for A94G U127C reads 1.04; that for A94G U127G, 1.87. For A94G U127A, the self-cleavage amounted to 2.55. The result for U87A U122C reads 1.28; that for U87A U122A, 1.73; that for A91G A111U, 0.03. To A89G A110G belongs 0.12; to A90U A116U, 0.24; to A92U A94G, 1.76. On to C88U A129G, for which the self-cleavage amounted to 1.65.

As for A89G U108A, the self-cleavage was found to be 0.02. To A89G U108C belongs 0.02; to A89G U108G, 0.01; to A92U G104A, 0.01. The result for U87C U120C reads 0.21; that for U87C U120A, 0.99; that for A92G U127A, 2.33.

Take A90U G106A: the self-cleavage stood at 0. To U87G A117G belongs 0.46. For A89U U130C, the self-cleavage came out at 1.2.

Take A92G U131A: the self-cleavage was found to be 1.33. To A91G A116G belongs 0.55.

A91G A116C: the self-cleavage was 0.04. As for A91U A129G, the self-cleavage was determined as 1.13. The result for U87C A116U reads 0.17. The result for A94G A117U reads 0.67; that for A89U U139A, 1.49. Turning to U87C G137A, the self-cleavage was 2.3. The result for C88A U130C reads 1.42; that for U87A U133C, 1.05; that for U87A U133G, 1.25. The result for A94C A126G reads 0.79; that for A94G A95G, 1.9. To A92U C112U belongs 0.01. Take A92G U122C: the self-cleavage amounted to 1.19. The result for A92G A118U reads 0.78; that for A90U U122C, 2.2. The result for A91C A117G reads 2.03; that for A92G A125G, 0.79; that for A92G A125U, 1.59.

As to U87G U122C, the self-cleavage amounted to 0.68.

With A91G A117U, the self-cleavage came out at 0.69. The result for A92G A126G reads 1.18. To A92G A126U belongs 0.78; to A94G C107G, 0.01. The result for A92U U120C reads 1; that for A90U A98U, 2.21.

U87C A89G: the self-cleavage is 1.73. Consider A94G A114U, for which the self-cleavage was found to be 0.04. As to A94G A114C, the self-cleavage amounted to 0.05. To A89U A114G belongs 0.49; to G93U A135G, 1.96. To A92G C113U belongs 0.14; to A92G U139A, 2.12; to A92G U139G, 1.3. The result for A91G U120A reads 1.33; that for A91G U120C, 0.53; that for A89G G99A, 1.15. With A91U A92G, the self-cleavage came out at 1.04. A89G A116U: the self-cleavage stood at 0.31. For A89G A116G, the self-cleavage came out at 0.7. The result for A89G U131A reads 0.3; that for A89C A96G, 2.38. With A90G A96U, the self-cleavage worked out at 1.79. To A90G A96G belongs 1.25.

Regarding U87C U133G, the self-cleavage worked out at 1.67. To A90C U120A belongs 1.88; to A90U U103A, 0.34.

Turning to U87C U124C, the self-cleavage was determined as 0.83. To A92G A140G belongs 1.69; to A90G G123A, 0.48; to A92G A129U, 1.16.

A92G A129C: the self-cleavage is 0.59. To A90G A135G belongs 0.51; to U87C A129G, 1.14. With U87C A129U, the self-cleavage is 0.73.

U87A A134G: the self-cleavage came to 2.21. Regarding A92C A114G, the self-cleavage stood at 0.98.

On to A89G U97A, for which the self-cleavage stood at 0.88. The result for A90G A117U reads 1.07. To A90G A117G belongs 0.83. As to A94U A96G, the self-cleavage is 1.29. As to A92G U133C, the self-cleavage was 1.59. For A90G A91G, the self-cleavage amounted to 0.55. The result for U87C A95C reads 0.32; that for U87C A95G, 1.35. To G93A U108A belongs 0.02. To A95C A116G belongs 0.74.

As for A90G U102C, the self-cleavage was 1.97. The result for A90G U102A reads 0.09; that for A91G A98G, 0.26; that for U87C A118G, 0.75. The result for U87C A118U reads 0.9; that for A89C U130C, 1.12. To A91G U127C belongs 0.78; to A91G U127A, 2.67. As to U87C U100C, the self-cleavage is 2.72. To U87C U100A belongs 0.18; to G93A A135G, 2.27; to A91G A114G, 0.25. In the case of A91G A114U, the self-cleavage was determined as 0.03. As to U87C C109U, the self-cleavage amounted to 0.43. To U87G A134G belongs 0.44; to A90G G138U, 1.3; to A89U U97C, 1.58. Take A91G A118G: the self-cleavage was determined as 0.94. To A89U U133C belongs 1.97; to A92U A125G, 0.58. A91G U102C: the self-cleavage was determined as 1.94. The result for A90G A140U reads 0.74. To A90G A140G belongs 0.65; to U87C A126U, 1.18; to U87C A126G, 0.82. The result for U87C A111C reads 0.02; that for U87C A111G, 0.03.

Consider U87G A126C, for which the self-cleavage was 0.12. To A91U U120C belongs 1.64; to A94G A134G, 1.03; to A91G A110U, 0.36.
